B1: Arabidopsis thaliana P5CR (δ1-pyrroline-5-carboxylate reductase) (enzyme, UniProt P54904 1-276, looked up)
chain: MEILPIPAESFKVGFIGAGKMAESIARGVVASGVLPPNRICTAVHSNLNRRDVFESFGVNVFSTSEEVVKESDVVIFSVKPQVVKKAVTELKSKLSKNKILVSVAAGIKLNDLQEWSGQDRFIRVMPNTPAAVGEAASVMSLGTGATEEDGAIVAMLFGAVGKILKADEKMFDAVTGLSGSGPAYIFLAIEALADGGVAAGLPRELALSLASQTVLGAATMVSKTGKHPGVLKDDVTSPGGTTIAGVHELEKGSFRATLMNAVVAAAKRSRELSQS
notes: Pyrroline-5-carboxylate reductase of Arabidopsis thaliana; coding gene cloned into pMCSG68 (construct as in Giberti et al., 2014); also called AtP5CR; P5C reductase; source: E. coli BL21 Gold, purified (HisTrap HP, TEV cleavage, second HisTrap HP pass); not shown: His6, N-terminal, cleaved; copies: 10

Experiments:
[1] = molecular target: Bacillus cereus P5CR (Bc_2977), full-length (Bacillus cereus); test: SEC; HiLoad 16/600 Superdex 200 Prep Grade; 1.5 mL of purified protein at ~5 mg/mL; run in lysis buffer (50 mM HEPES pH 8.0, 500 mM NaCl, 5% glycerol, 20 mM imidazole, 10 mM β-mercaptoethanol); calibrated with chymotrypsinogen A, albumin, SpP5CR decamer (275 kDa) and thyroglobulin
[2] = molecular target: the molecule itself; test: as above

Molecule | stoichiometry N [1] | stoichiometry N [2]
Bacillus cereus P5CR (Bc_2977), full-length (enzyme) | 10 | –
B1 | – | 10
